For assay [1], the target named is T1, Human serum albumin (HSA) (human, UniProt P02768 25-609).
T1 construct: In SPR the HSA was immobilised on a CM5 chip
The assay is described as follows: affinity as cited in the structural example (SPR).

The target of assay [2] is T1, Human serum albumin (HSA). The experiment in a line: SPR (Biacore 3000), HSA immobilised on CM5 chip, Nb as analyte.
Description: Nb Affinity measurement by surface plasmon resonance (SPR) Surface plasmon resonance (SPR, Biacore 3000 system, GE Healthcare) was used to measure Nb affinities. Briefly, a protein antigen such as GST, OMP25 PDZ domain or human serum albumin was immobilized to the flow channels of an activated CM5 sensor-chip. Protein analytes were diluted to 10-30 µg/ml in 10 mM sodium acetate, pH 4.5, and injected into the SPR system at 5 µl/min for 420 s. The surface was then blocked by 1 M ethanolamine-HCl (pH 8.5). For each Nb analyte, a series of dilution spanning approximately 1,000 fold was injected in duplicate, with HBS-EP+ running buffer (GE-Healthcare) containing 2 mM DTT, at a flow rate of 20- 30 µl/min for 120- 180 s, followed by a dissociation time of 5 - 20 mins based on dissociation rate. Between each injection, the sensor chip surface was regenerated with low pH buffer containing 10 mM glycine-HCl (pH 1.5- 2.5) at a flow rate of 40-50 µl/min for 30 s, or high pH buffer of 20-40 mM NaOH (pH 12- 13) at 40-50 µl/min for 30 s. Binding sensorgrams for each Nb were processed and analyzed using BIA evaluation by fitting with 1:1 Langmuir model or 1:1 Langmuir model with mass transfer.

What is called Kd is a measure of binding affinity in units of concentration. Usually koff stands for the first-order rate constant of dissociation. For orientation: kon means the rate constant with which the complex forms.

T1 sequence (P02768 25-609 limits assumed, form in doubt): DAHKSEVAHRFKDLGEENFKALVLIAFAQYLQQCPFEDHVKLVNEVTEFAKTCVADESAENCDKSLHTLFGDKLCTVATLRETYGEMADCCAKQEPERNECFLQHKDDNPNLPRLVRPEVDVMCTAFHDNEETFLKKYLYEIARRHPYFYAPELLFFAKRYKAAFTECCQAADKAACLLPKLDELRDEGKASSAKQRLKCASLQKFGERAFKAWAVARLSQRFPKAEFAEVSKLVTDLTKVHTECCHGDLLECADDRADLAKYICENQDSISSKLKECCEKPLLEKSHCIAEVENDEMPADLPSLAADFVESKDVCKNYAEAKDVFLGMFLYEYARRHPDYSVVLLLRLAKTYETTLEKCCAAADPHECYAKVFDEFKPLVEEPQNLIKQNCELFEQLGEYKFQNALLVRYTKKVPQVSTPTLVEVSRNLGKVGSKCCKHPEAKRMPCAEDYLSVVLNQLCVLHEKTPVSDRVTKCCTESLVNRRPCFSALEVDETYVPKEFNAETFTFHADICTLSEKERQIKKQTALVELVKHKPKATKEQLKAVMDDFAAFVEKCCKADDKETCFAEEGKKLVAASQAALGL

B1: Nb80 (VHH)
VHH: EVQLVESGGGLVQAGGSLRLSCTASGRTFTPYTMGWFRQAPGKEREFVASILWSGNNRDYADSVKGRFAISRDNAKNTAYLQMTSLKPEDTAVYYCAAGDGLGFYRSVNQYDYWGQGTQVTVS
notes: His-tagged nanobody from E. coli
In turn, B1 returned a Kd in assay [1] of 0.16 nM. In assay [2], this molecule had a Kd of 0.166 nM, a dissociation rate constant (koff) of 2.75e-05 s⁻¹ and a kon of 166000 M⁻¹ s⁻¹.

Values taken from patent US20230212270A1 (UNIVERSITY OF PITTSBURGH OF THE COMMONWEALTH SYSTEM OF …, published 2023).
